Here are results for two substances from US20110059082A1.

The target of assay [1] is complement factor C1q (purified recombinant C1q) (UniProt P02745). The assay is described as follows: flow cytometry, C1q binding to antibody-coated PBMCs, FITC anti-C1q; antibody 150 µg/ml. In general terms: A flow cytometer gives signals particle by particle.
Assay [2] shares this target. Put plainly: flow cytometry, C1q binding to antibody-coated PBMCs, FITC anti-C1q; antibody 2.3 µg/ml.
For assay [3] the target is unchanged. The assay is described as follows: flow cytometry, C1q binding to antibody-coated PBMCs, FITC anti-C1q; antibody 9.4 µg/ml.
Assay [4] shares this target. Put plainly: flow cytometry, C1q binding to antibody-coated PBMCs, FITC anti-C1q; antibody 37.5 µg/ml.
The target is the same in assay [5]. Put plainly: flow cytometry, C1q binding to antibody-coated PBMCs, FITC anti-C1q; antibody 18.8 µg/ml.
For assay [6] the target is unchanged. Put plainly: flow cytometry, C1q binding to antibody-coated PBMCs, FITC anti-C1q; antibody 4.7 µg/ml.
Assay [7] shares this target. Put plainly: flow cytometry, C1q binding to antibody-coated PBMCs, FITC anti-C1q; antibody 1.2 µg/ml.
Assay [8] shares this target. The assay is described as follows: flow cytometry, C1q binding to antibody-coated PBMCs, FITC anti-C1q; antibody 75.0 µg/ml.

Sequence of complement factor C1q (purified recombinant C1q) (P02745 23-245, chain 1 of 3): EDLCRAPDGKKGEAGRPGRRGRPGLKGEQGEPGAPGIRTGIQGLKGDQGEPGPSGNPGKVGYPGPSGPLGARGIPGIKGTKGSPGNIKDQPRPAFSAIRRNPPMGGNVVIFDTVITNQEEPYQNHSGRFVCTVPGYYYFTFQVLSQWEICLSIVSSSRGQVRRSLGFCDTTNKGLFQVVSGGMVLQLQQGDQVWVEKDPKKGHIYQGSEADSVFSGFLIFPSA
Sequence of complement factor C1q (purified recombinant C1q) (P02746 28-253, chain 2 of 3, further chain): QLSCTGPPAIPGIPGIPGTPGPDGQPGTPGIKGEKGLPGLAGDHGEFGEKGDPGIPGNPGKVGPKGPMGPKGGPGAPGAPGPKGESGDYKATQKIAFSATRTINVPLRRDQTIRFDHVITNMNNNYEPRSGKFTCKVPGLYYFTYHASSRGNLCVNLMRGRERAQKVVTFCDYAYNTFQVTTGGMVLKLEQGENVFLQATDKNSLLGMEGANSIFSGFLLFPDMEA
Sequence of complement factor C1q (purified recombinant C1q) (P02747 29-245, chain 3 of 3, further chain): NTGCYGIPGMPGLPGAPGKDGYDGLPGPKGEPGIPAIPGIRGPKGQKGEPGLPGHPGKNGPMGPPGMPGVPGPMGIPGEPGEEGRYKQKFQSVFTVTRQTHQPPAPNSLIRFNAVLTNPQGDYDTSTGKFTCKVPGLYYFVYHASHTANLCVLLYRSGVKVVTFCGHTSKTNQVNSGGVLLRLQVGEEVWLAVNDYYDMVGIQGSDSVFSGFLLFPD

Consider ATG (Tecelac) (antibody), for which the Mean fluorescence intensity in assay [1] was determined as 782 MFI; in assay [2] it was 371 MFI; in assay [3] it was 541 MFI; in assay [4], 732 MFI; in assay [5], 672 MFI; in assay [6], 491 MFI. Moreover, the figures for the Mean fluorescence intensity in assay [7] and in assay [8] were 302 MFI and 766 MFI, respectively.
For “humanized B-F5 H37L/L4M IgG1 (BT061) (antibody)”, the Mean fluorescence intensity in assay [1] was 199 MFI; in assay [2], 199 MFI; in assay [3] it was 210 MFI; in assay [4], 205 MFI; in assay [5] it was 217 MFI; in assay [6] it was 198 MFI. Also, the results for the Mean fluorescence intensity in assay [7] and in assay [8] were 193 MFI and 200 MFI, respectively.
